# Measurements taken from US20240182582A1.
# How the values were obtained:
# [1] = biological target: NKG2d (NKG2-D type II integral membrane protein) on NKL cells / NK cells (human) (UniProt P26718); assay: flow cytometry on NKL cells, secondary antibody alone without primary antibody (background control), column 6 nM
# [2] = biological target: NKG2d (NKG2-D type II integral membrane protein) on NKL cells / NK cells (human) (UniProt P26718); assay: flow cytometry on NKL cells, secondary antibody alone without primary antibody (background control), column 60 nM
# [3] = biological target: NKG2d (NKG2-D type II integral membrane protein) on NKL cells / NK cells (human) (UniProt P26718); assay: flow cytometry on NKL cells, secondary antibody alone without primary antibody (background control), column 0.6 nM
# NKG2d (NKG2-D type II integral membrane protein) on NKL cells / NK cells (human), sequence (P26718 whole entry): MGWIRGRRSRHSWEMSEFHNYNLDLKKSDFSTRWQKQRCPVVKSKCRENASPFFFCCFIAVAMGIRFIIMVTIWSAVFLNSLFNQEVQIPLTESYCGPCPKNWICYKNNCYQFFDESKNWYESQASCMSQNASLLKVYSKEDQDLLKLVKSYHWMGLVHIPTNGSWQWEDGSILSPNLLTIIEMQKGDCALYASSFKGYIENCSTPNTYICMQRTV
substance,measurement,setting,value
secondary antibody only (Goat anti hu-Fc AF647),geomean fluorescence,[1],115
same,geomean fluorescence,[2],63.8
same,geomean fluorescence,[3],92.6
